From US20220098305A1 (Hoffmann-La Roche, published 2022) come the findings set out here.

As usually defined, the EC50 is the concentration giving half of the maximal effect. One may read the EC50 (read off the curve) as the concentration at which the effect is half-maximal. Read a high EC50 (read off the curve) as a less potent agent.

Experiment [1] concerns the target T1, cynomolgus ICOS (cynomolgus, UniProt Q9Y6W8 21-195 (human entry)).
T1 chain: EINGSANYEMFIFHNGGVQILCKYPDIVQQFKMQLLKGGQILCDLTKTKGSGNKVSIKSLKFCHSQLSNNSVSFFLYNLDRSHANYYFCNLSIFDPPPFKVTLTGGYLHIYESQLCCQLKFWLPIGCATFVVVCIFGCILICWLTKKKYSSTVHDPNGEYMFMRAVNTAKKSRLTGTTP
Nature of the experiment: flow cytometry, activated cynomolgus PBMCs, CD8+ subset. How it is done:
(§1) Briefly, suspension cells were harvested, counted, checked for viability and re-suspended at 1 million cells per ml in FACS buffer (PBS with 0.1% BSA). […] The staining was fixed for 20 min at 4° C. in the dark, using 75 μl of 1% PFA in FACS buffer per well.
(§2) Briefly, cynomolgus PBMCs were activated for 48 hours using Dynabeads™ Human T-Activator CD3/CD28 (Thermo Fischer #11131D) according to manufacturer instruction and stored in RPMI1640 medium containing 10% FCS and 1% Glutamax (Gibco 35050061) at 37° C., in a humidified incubator until subsequent binding experiment was performed, as described above.

In the next experiment the target is T2, murine ICOS (murine, UniProt Q9WVS0 21-200).
T2 sequence: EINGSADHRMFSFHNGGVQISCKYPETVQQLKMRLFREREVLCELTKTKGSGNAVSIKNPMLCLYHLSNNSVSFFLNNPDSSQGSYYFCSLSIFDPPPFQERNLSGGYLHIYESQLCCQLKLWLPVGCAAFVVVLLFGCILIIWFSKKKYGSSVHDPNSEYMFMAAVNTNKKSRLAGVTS
Description: flow cytometry, pre-activated murine splenocytes (figure legend: recombinant CHO cells). (A flow cytometer gives signals particle by particle.)

Experiment [2] deals with T1, cynomolgus ICOS. Nature of the experiment: flow cytometry, activated cynomolgus PBMCs, CD4+ subset. As to the method:
as §1, §2

In experiment [3] the target is T3, murine FAP (murine, UniProt P97321 26-761, limits assumed).
T3 construct: also called mouse FAP
Nature of the experiment: flow cytometry, % positive cells; cells bearing murine FAP not given.

For the next experiment, the target named is T4, human FAP (human, UniProt Q12884 1-760).
T4 construct: also called hu FAP
Nature of the experiment: flow cytometry, NIH/3T3-huFAP clone 19 cells. How it is done:
as §1
(§3) Fluorescence was analyzed by FACS using a FACS Fortessa (Software FACS Diva). Binding curves and EC₅₀ values were obtained using GraphPadPrism 7.

The target of experiment [4] is T3, murine FAP. Nature of the experiment: flow cytometry, cells carrying murine FAP not told.
Experiment [5] deals with T5, human ICOS (human, UniProt Q9Y6W8 21-199).
T5 construct: The cell that carries it is named under assay; also called huICOS; CD278
T5 sequence: T1 chain with K54T, R81H, T129A, F136L, T152S, G176D, T177V, P179L
Description: flow cytometry, CHO cells expressing human ICOS. As to the method: as §1, §3

For experiment [6], the target named is T1, cynomolgus ICOS. Description: flow cytometry, activated cynomolgus PBMCs, CD8+ subset. As to the method: as §1, §2
In experiment [7] the target is T5, human ICOS. Nature of the experiment: flow cytometry on CHO cells stably expressing human ICOS, AF647-labelled anti-human Fc secondary antibody, MFI. As to the method:
as §1, §3

Experiment [8] addresses T1, cynomolgus ICOS. Nature of the experiment: flow cytometry, activated cynomolgus PBMCs, CD4+ subset. As to the method: as §1, §2

Positions count from the first letter of the chain named.

B1: Molecule 9, bispecific 2+1 anti-ICOS (1167)/anti-FAP (4B9) huIgG1 P329GLALA kih (bispecific antibody)
heavy 1: EVRLLESGGGLVQPGGSLRLSCAASGFTFNTYAVHWVRQAPGKGLEWVSGIGGSGVRTYYADSVKGRLTISRDNSKNTLYLQMNSLRAEDTAIYFCAKDIYVADFTGYAFDIWGQGTMVTVSSASTKGPSVFPLAPSSKSTSGGTAALGCLVKDYFPEPVTVSWNSGALTSGVHTFPAVLQSSGLYSLSSVVTVPSSSLGTQTYICNVNHKPSNTKVDKKVEPKSCDKTHTCPPCPAPEAAGGPSVFLFPPKPKDTLMISRTPEVTCVVVDVSHEDPEVKFNWYVDGVEVHNAKTKPREEQYNSTYRVVSVLTVLHQDWLNGKEYKCKVSNKALGAPIEKTISKAKGQPREPQVCTLPPSRDELTKNQVSLSCAVKGFYPSDIAVEWESNGQPENNYKTTPPVLDSDGSFFLVSKLTVDKSRWQQGNVFSCSVMHEALHNHYTQKSLSLSPGGGGGSGGGGSGGGGSGGGGSEIVLTQSPGTLSLSPGERATLSCRASQSVTSSYLAWYQQKPGQAPRLLINVGSRRATGIPDRFSGSGSGTDFTLTISRLEPEDFAVYYCQQGIMLPPTFGQGTKVEIK
heavy 2: not shown
light: DIQMTQSPSSVSASVGDRVTITCRASQGINNFLAWYQQKPGKAPKLLIYDASSLQSGVPSRFAGSGSGTDFTLTISSLQPEDFATYYCQQYNFYPLTFGGGTMVEIKRTVAAPSVFIFPPSDRKLKSGTASVVCLLNNFYPREAKVQWKVDNALQSGNSQESVTEQDSKDSTYSLSSTLTLSKADYEKHKVYACEVTHQGLSSPVTKSFNRGEC
notes: also called FAP-ICOS (2+1)
Regarding B1, the concentration for a half-maximal effect (EC50) with cynomolgus ICOS [1] turned out to be 10.5 nM; with murine ICOS, 7.21 nM; with cynomolgus ICOS [2] it was 5.5 nM; in the experiment with human FAP, 5.73 nM; in the experiment with murine FAP [4], 0.505 nM; with human ICOS [5], 2.72 nM. Moreover, the EC50 is 10.5 nM with cynomolgus ICOS [6] and 5.5 nM with cynomolgus ICOS [8]. Besides, the “EC50 (read off the curve)” value with murine FAP [3] was around 0.5 nM; with human ICOS [7], around 3 nM.
